{
  "source": "patent US20240409645A1",
  "binders": {"B1": {"name": "FJ1427 P035MP03F07 (VHH)", "VHH": "QVQLVESGGGLVQAGGSLRLSCAASGRTFSSYVMGWFRQAPGKEREFVVAITGTRRTTDWPDSVKGRFTISRDNAQNTVYLDMNSLKPEDTAVYYCASARGLPVPPLGDIIHWGEGTLVTVSS"}, "B2": {"name": "FJ1427_P035MP03F02 (VHH)", "VHH": "QVQLVESGGGLVQPGGSLRLSCAASGFTFSNYAMSWVRQAPGKGLEWVSSITGAGRGTYYADSVKGRFTISRDNDKNTLYLQMNSLKPEDTAVYYCAKYDSSTYYPPTPARGIADRGQGIQVTVSS"}, "B3": {"name": "FJ1427_P035MP03G03 (VHH)", "VHH": "B2 VHH with R19G, S30D, Y59H, D75A, D100S, I113T, A114D, D115Y, Q118P, I120T"}, "B4": {"name": "FJ1427_P035MP03D03 (VHH)", "VHH": "QVQLVESGGGLVQVGDSLRLSCAASGRTVGSANMGWFRQAPGKEREFVAVITWSTGSTVYADSVKGRFTISRDNAKNTVYLDLSSLKPEDTAVYYCAADVYPYSGNLNIMDYWGKGTQVTVSS"}, "B5": {"name": "FJ1427 P035MP03A03 (VHH)", "VHH": "EVQLVESGGGSVQTGGSLRLSCVVSGSHFISDVMGWYRQVPGKQRELVADMADGGSVKYGDSVKGRFTILRDSVKNTVTLQMSSLNPEDTGVYYCKAGLWITGRHFDYWGQGTQVTVTS"}, "B6": {"name": "FJ1427_P035MP03A04 (VHH)", "VHH": "B5 VHH"}, "B7": {"name": "FJ1427_P035MP03E02 (VHH)", "VHH": "QVQLVESGGGLVQVGGSLSVSCAASGRSFDSITMAYFRQAPGNEREFIAGINFSGSRTAYGDSVKGRFTISRDNAKNTVFLQMNSLNPEDTAVYYCAASPRGFYGPGHALYDYWGQGTQVTVSS"}, "B8": {"name": "FJ1427 P035MP03C04 (VHH)", "VHH": "EVQLVESGGGLVQAGASLELSCAASGGTFSSYAMGWFRQAPGKEREFVAATTRGGGRTMYAVSTEGRFSCSRDNAKNTVNLLIKNLKPEDTAVYYCAARTSYYDGTYYPASSDFDIWGQGTQVTVSS"}, "B9": {"name": "FJ1427_P035MP03H04 (VHH)", "VHH": "B8 VHH with E1Q, A16G, E19A, N80Y"}, "B10": {"name": "FJ1427 P035MP03H05 (VHH)", "VHH": "B8 VHH with E1Q, V2L, A16G, E19A, N80Y"}, "B11": {"name": "FJ1427_P035MP03G02 (VHH)", "VHH": "EVQLVESGGGLVQPGGSLRLSCAISGGTLDSYGIGWVRQAPGKQREGVSCMSRSDDRTFYADSVKGRFTISKDNAKSTVYLQMTNLKPDDTAVYYCAAVDAYGCSLVQPTTYDFWGLGTQVTVSS"}, "B12": {"name": "FJ1427_P035MP03A09 (VHH)", "VHH": "QVQLVESGGGLVQAGGSLRLACAASGRTFSTLTMGWFRQAPGKEREFVAGISPSGGYAWHADSVKGRFTIDRDNAKNTVYLQTRSLRPEDTAVYYCAADHPPYGAVASRSEYEYDDWGPGTRVTVSS"}, "B13": {"name": "FJ1427 P035MP03B04 (VHH)", "VHH": "QVQLVESGGGLVQTGGSLRLSCAASGSQFINDVMGWYRQVPGKQRELVADMDDTGSTKYADSVKGRFTILRDSVKNTAYLQMSNLKPEDTGVYYCKAGLWIKGRHSDYWGQGTQVTVSS"}, "B14": {"name": "FJ1427_P035MP03F04 (VHH)", "VHH": "B13 VHH with Q1E"}, "B15": {"name": "FJ1427_P035MP03F06 (VHH)", "VHH": "B13 VHH with V5Q"}, "B16": {"name": "FJ1427_P035MP03E06 (VHH)", "VHH": "QVQLVESGGGLVQAGRSLGLSCAASGFTFDNYAMSWVRQAPGKGLEWVSSITGAGRGTHYADSVKGRFTISRDNAKNTLYLQMNSLKPEDTAVYYCAKYSSSTYYPPTPARGTDYRGPGTQVTVSS"}, "B17": {"name": "FJ1427 P035MP03D04 (VHH)", "VHH": "QVQLVESGGGLVQPGGSLRLSCAASGFTFSNYAMSWVRQAPGKELEWVSSITSAGRGTHYADTVKGRFTISRDNDENTLYLQMNSLEPEDTAVYYCAKYSSATYYPPTPAQGRDYRGQGTQVTVSS"}, "B18": {"name": "FJ1427_P035MP03G05 (VHH)", "VHH": "EVQLVESGGGLVQIGGSLRLSCAASGRTFSSITMAYFRQVPGKEREWVAGINFSGTRTFYADSVKGRFLISRDDAKSTMYLQMNSLKPEDTAVYYCAASPRGFYGPGNALYDYWGQGTQVTVSS"}, "B19": {"name": "FJ1427_P035MP03C07 (VHH)", "VHH": "QVQLVESGGGLVQAGDSLRLSCAASGRSLSTDCMGWVRQAPGKEREFVAGITWGTGSTLYADSVEGRFTISKDNAKNTGYLQMSSLKPEDTAVYYCAVDRYCYRGTVYRDWGRGTQVTVSS"}, "B20": {"name": "FJ1427 P035MP03E05 (VHH)", "VHH": "EVQLVESGGGLVQAGGSLRLSCAVSGVIFWSDVVGWYRQASGKQRELVATINLDDTKHYGEVVKGRFAISRDSHKNAYYLQLNSLKPEDTAVYYCNVRRGSEFYWGQGTQVTVSS"}, "B21": {"name": "FJ1427 P035MP03E07 (VHH)", "VHH": "QVQLVESGGGLVQAGGSLRLSCAVSGDVFVRYTMAWFRQAPGKEREFVATVTDSGRTTEYVDSVKGRFTVSRDNAKNTVYLQMNNLKPEDTAVYYCAANTDYFRIRSLDANTWGQGTQVTVSS"}, "B22": {"name": "FJ1427_P035MP03B09 (VHH)", "VHH": "B21 VHH with A23V, A49T, T50S, V51I"}, "B23": {"name": "FJ1427_P035MP03G09 (VHH)", "VHH": "B21 VHH with A23V, T50V, R104Q, L108V, A110N, T112A"}, "B24": {"name": "FJ1427_P035MP03H07 (VHH)", "VHH": "B21 VHH with Q1E, A23V, T50A, R104Q, L108V, A110N, T112A"}, "B25": {"name": "FJ1427_P035MP03E08 (VHH)", "VHH": "QVQLVESGGGLVQAGGSLRLSCAAAGRAIENYPVGWFRRAPGKEREFVAAITWISGSTLYADSVKGRFTISRDNAKNTVYLQMSSLKPEDTALYYCAAALKTITRGQNDYSYWGQGTQVTVSS"}, "B26": {"name": "FJ1427 P035MP03F09 (VHH)", "VHH": "B25 VHH with Q1E, R19T, A25S, I29F, E30S, R39Q, I54L, K65E, Q82L, Y95F"}, "B27": {"name": "FJ1427_P035MP03E04 (VHH)", "VHH": "QVQLVESGGGLVQTGGSLRLSCAVSGSHFISDVMGWYRQVPEKQRELVADMADGNSAKYADSVKGRFSILRDSVKNTVYLQMSSLKPEDTGIYYCKAGLWIAGRHSDYWGQGTQVTVSS"}, "B28": {"name": "FJ1427 P035MP03A06 (VHH)", "VHH": "B27 VHH with Q1E, H28R, E42G, Q44A, N55G, L70V, V74G, N76S, V78M, I92M"}, "B29": {"name": "FJ1427_P035MP03G07 (VHH)", "VHH": "QVQLVESGGGLVQAGGSLRLSCAASGRTFSSDAKGWFRQAPGKEREFVAAITWAGRGTDYADSVKGRFTITRDNAKNMVYLQMSNLKPEDTAVYYCALNPEGVIGPYFRNSNRYNYWGQGTQVTVSS"}, "B30": {"name": "FJ1427_P035MP03A07 (VHH)", "VHH": "QVQLVESGGGLVEAGGSLRLSCAASGRAFNNFPMGWFRQAPGKEREFVAAITWISGSTLYADSVKGRFTISRDKSKNTVYLQMSGLKPEDTALYYCAAALKTITRGQHDYTYWGQGTQVTVSS"}, "B31": {"name": "FJ1427_P035MP03B05 (VHH)", "VHH": "EVQLVESGGGLVQAGGSLRLACALSGDVFVRYTMAWFRQAPGKEREFVASVTDSGRTTDYVASVQGRFTVSRDNNKNTVYLQMNSLKPEDTAVYYCAANTDYFQIRSLDRNTWGQGTQVTVSS"}, "B32": {"name": "FJ1427 P035MP03C08 (VHH)", "VHH": "B31 VHH"}, "B33": {"name": "FJ1427 P035MP03D07 (VHH)", "VHH": "B21 VHH with Q1E, V24A, T50S, E59D, V61G, R104Q"}},
  "note": "Numbering of substitutions follows the chain as printed.",
  "data": [
    {"target": "T1, mouse IL-2Rβ (mouse) (UniProt P16297)", "T1 sequence (looked up)": "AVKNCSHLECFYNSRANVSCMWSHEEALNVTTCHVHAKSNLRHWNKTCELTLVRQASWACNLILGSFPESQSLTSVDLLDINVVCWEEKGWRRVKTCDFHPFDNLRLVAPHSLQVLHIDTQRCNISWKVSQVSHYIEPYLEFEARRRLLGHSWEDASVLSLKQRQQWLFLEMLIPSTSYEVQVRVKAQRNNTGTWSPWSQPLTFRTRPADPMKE", "experiment": "P.E. binding ELISA on coated protein", "units": {"P.E. binding ELISA OD": "OD450 nm"}, "values": [
      {"binder": "B1", "P.E. binding ELISA OD": 0.048},
      {"binder": "B2", "P.E. binding ELISA OD": 0.049},
      {"binder": "B3", "P.E. binding ELISA OD": 0.05},
      {"binder": "B4", "P.E. binding ELISA OD": 0.048},
      {"binder": "B5", "P.E. binding ELISA OD": 0.05},
      {"binder": "B6", "P.E. binding ELISA OD": 0.051},
      {"binder": "B7", "P.E. binding ELISA OD": 0.05},
      {"binder": "B8", "P.E. binding ELISA OD": 0.048},
      {"binder": "B9", "P.E. binding ELISA OD": 0.05},
      {"binder": "B10", "P.E. binding ELISA OD": 0.049},
      {"binder": "B11", "P.E. binding ELISA OD": 0.049},
      {"binder": "B12", "P.E. binding ELISA OD": 0.049},
      {"binder": "B13", "P.E. binding ELISA OD": 0.048},
      {"binder": "B14", "P.E. binding ELISA OD": 0.049},
      {"binder": "B15", "P.E. binding ELISA OD": 0.048},
      {"binder": "B16", "P.E. binding ELISA OD": 0.048},
      {"binder": "B17", "P.E. binding ELISA OD": 0.048},
      {"binder": "B18", "P.E. binding ELISA OD": 0.049},
      {"binder": "B19", "P.E. binding ELISA OD": 0.047},
      {"binder": "B20", "P.E. binding ELISA OD": 0.049},
      {"binder": "B21", "P.E. binding ELISA OD": 0.057},
      {"binder": "B22", "P.E. binding ELISA OD": 0.046},
      {"binder": "B23", "P.E. binding ELISA OD": 0.054},
      {"binder": "B24", "P.E. binding ELISA OD": 0.053},
      {"binder": "B25", "P.E. binding ELISA OD": 0.048},
      {"binder": "B26", "P.E. binding ELISA OD": 0.048},
      {"binder": "B27", "P.E. binding ELISA OD": 0.048},
      {"binder": "B28", "P.E. binding ELISA OD": 0.047},
      {"binder": "B29", "P.E. binding ELISA OD": 0.048},
      {"binder": "B30", "P.E. binding ELISA OD": 0.049},
      {"binder": "B31", "P.E. binding ELISA OD": 0.05},
      {"binder": "B32", "P.E. binding ELISA OD": 0.054},
      {"binder": "B33", "P.E. binding ELISA OD": 0.049}
    ]}
  ]
}
